Where a chain is given by its changes, count along the chain named. Names and notes keep the numbering of the source. One block for each binder: values may come before it.
Key:
[1] = biological target: T1, human MSLN antigen (human, UniProt Q13421 296-580, limits assumed); test: Octet BLI; bsAb on anti-human Fc sensor, human MSLN as analyte, several concentrations
T1 construct: Soluble antigen for BLI; also called Mesothelin; MESO
Excerpt: (§1) Variants of MESO-C were engineered by introducing point substitutions into the variable heavy region (VH) and the variable light region (VL) to generate 11 VH variants and 16 VL variants (sequences for which are depicted in FIG. 18 as H1.1-H1.13 and in FIG. 19 as L1.1-L1.18). An additional 4 VL variants were generated by combining useful point substitutions (sequences for which are depicted in FIG. 19 as L1.19-L1.22). WT and variant variable heavy regions were paired with WT and variant variable light regions to generate variant variable regions (Fvs) which were produced in the context of anti-MSLN×anti-CD3 bispecific antibodies. The bispecific antibodies were screened for MSLN binding affinity using Octet®, a BioLayer Interferometry (BLI)-based method. Experimental steps for Octet® generally include the following: Immobilization (capture of ligand to a biosensor); Association (dipping of ligand-coated biosensors into wells containing the analyte); and Dissociation (returning of biosensors to well containing buffer). In an initial screening, anti-human Fc sensors were used to capture the bispecific mAbs and dipped into human MSLN antigen (one concentration to screen large library). The resulting dissociation constant of illustrative variants (KD), association rate (kₐ), dissociation rate (kd), as well as sensorgram response are depicted in FIG. 20. In further screening of favorite variants identified in the initial screen (and combination variants), bispecific mAbs were dipped into multiple concentrations of human MSLN antigen, data for which are depicted in FIG. 21 (from various screens).

[2] = biological target: T1, human MSLN antigen; test: Octet BLI on human MSLN antigen (Example 2B(a)); KD quoted in the FIG. 35 legend
Excerpt: as §1

[3] = biological target: T1, human MSLN antigen; test: Octet BLI; bsAb on anti-human Fc sensor, human MSLN as analyte, one concentration
Excerpt: as §1

[4] = biological target: T2, cyno MSLN (Macaca fascicularis (cynomolgus)); test: Octet BLI; bsAb on anti-human Fc sensor, cyno MSLN as analyte, one concentration
T2 construct: soluble antigen for Octet; also called cynomolgus MSLN

T1 sequence (Q13421 other isoform, or with tags, fused parts or gaps limits assumed): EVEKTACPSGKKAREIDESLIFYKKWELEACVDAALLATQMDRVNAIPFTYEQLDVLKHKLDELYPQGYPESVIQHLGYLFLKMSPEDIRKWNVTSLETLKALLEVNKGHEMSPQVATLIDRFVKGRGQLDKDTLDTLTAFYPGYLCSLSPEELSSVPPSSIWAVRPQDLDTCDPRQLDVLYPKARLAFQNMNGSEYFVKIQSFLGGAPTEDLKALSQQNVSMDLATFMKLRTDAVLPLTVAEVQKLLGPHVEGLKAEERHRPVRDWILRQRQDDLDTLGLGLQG

- Kd [1]: 90.4 nM
- Response [1]: 0.202
- koff [1]: 0.0383 s⁻¹
- kon [1]: 424000 M⁻¹ s⁻¹
B1: XENP32939 (bispecific antibody)
heavy: QVQLVQSGAEVKKPGASVKVSCKASGYTFTSYWMHWVRQAPGQGLEWMGWIHPNSDNTIYYEKFQGRVTMTVDKSISTAYMELSRLRSDDTAVYYCAIIITPVVPKFDYWGQGTLVTVSSASTKGPSVFPLAPSSKSTSGGTAALGCLVKDYFPEPVTVSWNSGALTSGVHTFPAVLQSSGLYSLSSVVTVPSSSLGTQTYICNVNHKPSDTKVDKKVEPKSCDKTHTCPPCPAPPVAGPSVFLFPPKPKDTLMISRTPEVTCVVVDVKHEDPEVKFNWYVDGVEVHNAKTKPREEEYNSTYRVVSVLTVLHQDWLNGKEYKCKVSNKALPAPIEKTISKAKGQPREPQVYTLPPSREEMTKNQVSLTCDVSGFYPSDIAVEWESDGQPENNYKTTPPVLDSDGSFFLYSKLTVDKSRWEQGDVFSCSVMHEALHNHYTQKSLSLSPGK
scFv-Fc: not shown
light: DIVMTQSPDSLAVSLGERATINCKASHDVGQSVAWYQQKPGQSPKLLIYWASTRHTGVPDRFTGSGSGTDFTLTISSLQAEDVAVYFCQQYSSYPLTFGAGTKLEIKRTVAAPSVFIFPPSDEQLKSGTASVVCLLNNFYPREAKVQWKVDNALQSGNSQESVTEQDSKDSTYSLSSTLTLSKADYEKHKVYACEVTHQGLSSPVTKSFNRGEC
notes: VH M50W, VL T37Q as printed; also called MESO-C H1.3_L1.13; copies: 1 + 1 + 1

- Kd [2]: 9.2 nM
B2: XENP32947 (bispecific antibody)
heavy 1: B1 heavy
heavy 2: QVQLVQSGAEVKKPGASVKVSCKASGYTFTSYWMHWVRQAPGQGLEWMGWIHPNSDNTIYYEKFQGRVTMTVDKSISTAYMELSRLRSDDTAVYYCAIIITPVVPKFDYWGQGTLVTVSSASTKGPSVFPLAPSSKSTSGGTAALGCLVKDYFPEPVTVSWNSGALTSGVHTFPAVLQSSGLYSLSSVVTVPSSSLGTQTYICNVNHKPSNTKVDKKVEPKSCGGGGSGGGGSQAVVTQEPSLTVSPGGTVTLTCGSSTGAVTTSNYANWVQQKPGKSPRGLIGGTNKRAPGVPARFSGSLLGGKAALTISGAQPEDEADYYCALWYSNHWVFGGGTKLTVLGKPGSGKPGSGKPGSGKPGSEVQLVESGGGLVQPGGSLRLSCAASGFTFSTYAMNWVRQAPGKGLEWVGRIRSKANNYATYYADSVKGRFTISRDDSKNTLYLQMNSLRAEDTAVYYCVRHGNFGDSYVSWFAYWGQGTLVTVSSGGGGSGGGGSKTHTCPPCPAPPVAGPSVFLFPPKPKDTLMISRTPEVTCVVVDVKHEDPEVKFNWYVDGVEVHNAKTKPREEQYNSTYRVVSVLTVLHQDWLNGKEYKCKVSNKALPAPIEKTISKAKGQPREPQVYTLPPSREQMTKNQVKLTCLVKGFYPSDIAVEWESNGQPENNYKTTPPVLDSDGSFFLYSKLTVDKSRWQQGNVFSCSVMHEALHNHYTQKSLSLSPGK
light: B1 light with Q31T
notes: 2+1 Fab2-scFv-Fc; copies: 1 + 1 + 2

- Kd [3]: 0.721 nM
- Response [3]: 1.15
- koff [3]: 0.000374 s⁻¹
- kon [3]: 519000 M⁻¹ s⁻¹
- Kd [4]: 0.62 nM
- Response [4]: 1.09
- koff [4]: 0.000321 s⁻¹
- kon [4]: 518000 M⁻¹ s⁻¹
B3: XENP32557 (bispecific antibody)
Fab-Fc heavy chain (anti-MSLN VH): B1 heavy with W50M, T101S
scFv-Fc heavy chain (anti-CD3 H1.30_L1.47): not shown
light chain (anti-MSLN VL): B1 light with Q31T
notes: 1+1 Fab-scFv-Fc bsAb; VH T97S, VL WT (Kabat); also called MESO-C H1.8_L1

- Kd [3]: 0.18 nM
- Response [3]: 1.05
- koff [3]: 0.000113 s⁻¹
- kon [3]: 627000 M⁻¹ s⁻¹
- Kd [4]: 0.163 nM
- Response [4]: 0.941
- koff [4]: 0.0001 s⁻¹
- kon [4]: 616000 M⁻¹ s⁻¹
B4: XENP32566 (bispecific antibody)
Fab-Fc heavy chain (anti-MSLN VH): B1 heavy with W50M
scFv-Fc heavy chain (anti-CD3 H1.30_L1.47): not shown
light chain (anti-MSLN VL): B1 light with Q31T, T56S
notes: 1+1 Fab-scFv-Fc bsAb; VH WT, VL T56S (Kabat); also called MESO-C H1_L1.8

- Kd [3]: 0.103 nM
- Response [3]: 0.981
- koff [3]: 7.35e-05 s⁻¹
- kon [3]: 717000 M⁻¹ s⁻¹
- Kd [4]: 0.155 nM
- Response [4]: 0.95
- koff [4]: 0.000105 s⁻¹
- kon [4]: 676000 M⁻¹ s⁻¹
B5: XENP32570 (bispecific antibody)
heavy: B1 heavy with W50M, D56G
scFv-Fc: not shown
light: B1 light with D28S, Q31T
notes: VH D55G, VL D28S (Kabat); also called MESO-C H1.6_L1.3; copies: 1 + 1 + 1

- Response [1]: 0.183
- koff [1]: 0.00822 s⁻¹
- kon [1]: 803000 M⁻¹ s⁻¹
- Kd [2]: 10.2 nM
B6: XENP32937 (bispecific antibody)
heavy: B1 heavy with W50M, E62Q
scFv-Fc: not shown
light: B1 light with Q31T, S92Y
notes: 1+1 Fab-scFv-Fc

- Kd [2]: 10.2 nM
B7: XENP32948 (bispecific antibody)
heavy: B1 heavy with W50M, E62Q
Fab-scFv-Fc: B2 heavy 2 with W50M, E62Q
light: B1 light with Q31T, S92Y
notes: 2+1 Fab2-scFv-Fc

- Kd [1]: 16.2 nM
- Response [1]: 0.169
- koff [1]: 0.0103 s⁻¹
- kon [1]: 635000 M⁻¹ s⁻¹
B8: XENP32938 (bispecific antibody)
heavy: B1 heavy with W50M, E62Y
scFv-Fc: not shown
light: B1 light with Q31T, S92Y
notes: VH E61Y, VL S92Y as printed; also called MESO-C H1.13_L1.9; copies: 1 + 1 + 1

- Response [1]: 0.0022
- binding result [1]: no binding
B9: XENP32943 (bispecific antibody)
heavy: B1 heavy
scFv-Fc: not shown
light: B1 light with Q31T, Y94I
notes: VH M50W, VL Y94I as printed; also called MESO-C H1.3_L1.17; copies: 1 + 1 + 1

- Kd [1]: 246 nM
- Response [1]: 0.136
- koff [1]: 0.0816 s⁻¹
- kon [1]: 332000 M⁻¹ s⁻¹
B10: XENP32940 (bispecific antibody)
heavy: B1 heavy
scFv-Fc: not shown
light: B1 light with Q31T, Y94F
notes: VH M50W, VL Y100F as printed; also called MESO-C H1.3_L1.14; copies: 1 + 1 + 1

From patent US20240279356A1 (Xencor, published 2024)
